Literature values in paper PMC5028754.

Molecular target: ubiquitin (UniProt P0CG48)
Assay: NMR
Details: cited from earlier work

Chain of Ddi1 UBL (P40087 1-80): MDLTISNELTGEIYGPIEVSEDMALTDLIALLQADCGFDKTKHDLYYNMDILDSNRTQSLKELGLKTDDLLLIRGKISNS
Chain of Ddi1 UBA (P40087 386-428): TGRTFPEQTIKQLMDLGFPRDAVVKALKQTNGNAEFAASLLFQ

For Ddi1 UBA (from UniProt P40087), the Kd is given as 150 µM.
For Ddi1 UBL (from UniProt P40087), the Kd is listed as 45 µM.
